Experimental data published in patent US20070134720.

Biological target: GST-fused P4HA1 protein (whole region of P4HA1)
Sequence (chain, as listed by the source): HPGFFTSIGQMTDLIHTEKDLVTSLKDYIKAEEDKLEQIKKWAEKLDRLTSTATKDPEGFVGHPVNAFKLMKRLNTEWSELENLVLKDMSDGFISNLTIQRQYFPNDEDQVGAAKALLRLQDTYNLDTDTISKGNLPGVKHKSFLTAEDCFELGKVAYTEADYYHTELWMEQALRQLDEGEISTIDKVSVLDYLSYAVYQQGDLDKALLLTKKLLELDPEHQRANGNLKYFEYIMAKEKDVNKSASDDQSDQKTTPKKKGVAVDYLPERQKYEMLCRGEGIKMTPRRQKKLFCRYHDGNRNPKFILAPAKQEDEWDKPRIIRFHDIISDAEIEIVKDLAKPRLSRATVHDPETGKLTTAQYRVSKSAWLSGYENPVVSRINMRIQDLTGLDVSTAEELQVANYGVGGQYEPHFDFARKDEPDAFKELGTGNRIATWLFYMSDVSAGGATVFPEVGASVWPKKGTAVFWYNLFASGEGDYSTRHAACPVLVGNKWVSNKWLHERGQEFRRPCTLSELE

Protein | in vitro ubiquitination (32P-labeled ubiquitin, E1, E2 UbCH5c, ATP; SDS-PAGE autoradiography)
Syno RING synoviolin protein (GST moiety removed by thrombin) (protein) IRNMNTLYPDATPEELQAMDNVCIICREEMVTGAKRLPCNHIFHTSCLRSWFQRQQTCPTCRMDVLRASLPAQSPPPPEPADQGPPPAPHPPPLLPQPPNFPQGLLPPFPPGMFPLWPPMGPFPPVPPPPSSGEAVAPPSTSAAALSRPSGA | P4HA1 was ubiquitinated by Syno dTM and Syno RING
Syno dTM synoviolin protein (GST moiety removed by thrombin) (protein) KVHTFPLFAIRPMYLAMRQFKKAVTDAIMSRRAIRNMNTLYPDATPEELQAMDNVCIICREEMVTGAKRLPCNHIFHTSCLRSWFQRQQTCPTCRMDVLRASLPAQSPPPPEPADQGPPPAPHPPPLLPQPPNFPQGLLPPFPPGMFPLWPPMGPFPPVPPPPSSGEAVAPPSTSAAALSRPSGAATTTAAGTSATAASATASGPGSGSAPEAGPAPGFPFPPPWMGMPLPPPFAFPPMPVPPAGFAGLTPEELRALEGHERQHLEARLQSLRNIHTLLDAAMLQINQYLTVLASLGPPRPATSVNSTEGTATTVVAAASSTSIPSSEATTPTPGASPPAPEMERPPAPESVGTEEMPEDGEPDAAELRRRRLQKLESPVAH | P4HA1 was ubiquitinated by Syno dTM and Syno RING
Syno dTM (C307S) with 307th cysteine to serine substitution (GST moiety removed by thrombin) (protein) KVHTFPLFAIRPMYLAMRQFKKAVTDAIMSRRAIRNMNTLYPDATPEELQAMDNVCIICREEMVTGAKRLPSNHIFHTSCLRSWFQRQQTCPTCRMDVLRASLPAQSPPPPEPADQGPPPAPHPPPLLPQPPNFPQGLLPPFPPGMFPLWPPMGPFPPVPPPPSSGEAVAPPSTSAAALSRPSGAATTTAAGTSATAASATASGPGSGSAPEAGPAPGFPFPPPWMGMPLPPPFAFPPMPVPPAGFAGLTPEELRALEGHERQHLEARLQSLRNIHTLLDAAMLQINQYLTVLASLGPPRPATSVNSTEGTATTVVAAASSTSIPSSEATTPTPGASPPAPEMERPPAPESVGTEEMPEDGEPDAAELRRRRLQKLESPVAH | P4HA1 was not ubiquitinated by Syno dTM (C307S) and Syno dTM (dRING)
Syno dTM (dRING) with 291st to 329th amino acid deletion (GST moiety removed by thrombin) (protein) KVHTFPLFAIRPMYLAMRQFKKAVTDAIMSRRAIRNMNTLYPDATPEELQAMDNVRMDVLRASLPAQSPPPPEPADQGPPPAPHPPPLLPQPPNFPQGLLPPFPPGMFPLWPPMGPFPPVPPPPSSGEAVAPPSTSAAALSRPSGAATTTAAGTSATAASATASGPGSGSAPEAGPAPGFPFPPPWMGMPLPPPFAFPPMPVPPAGFAGLTPEELRALEGHERQHLEARLQSLRNIHTLLDAAMLQINQYLTVLASLGPPRPATSVNSTEGTATTVVAAASSTSIPSSEATTPTPGASPPAPEMERPPAPESVGTEEMPEDGEPDAAELRRRRLQKLESPVAH | P4HA1 was not ubiquitinated by Syno dTM (C307S) and Syno dTM (dRING)
